Measured values published in article PMC7692894.

Tests used:
[1] = molecular target: milk-derived short digestion-resistant peptides with the mass <3 kDa; experiment: SEC; milk peptide fraction <3 kDa (MP) run beside pepsin autoproteolysis peptides (PP); physiologically relevant conditions; area under the curve at 215 nm; details in Supplementary Information
[2] = as above

stoichiometry N [1]: > 4
Substance: milk-derived short digestion-resistant peptides with the mass <3 kDa
percent of the peptides aggregated [2]: 43.5% of the peptides aggregated into larger complexes
